Data from patent US12102667B2, “Polypeptides and antibiotics against gram-negative bacterium comprising the same” (priority 2021, dated 2024).

What was measured:
E. coli = test: MIC and MBC, broth microdilution in CAA medium; format: cell-based, Escherichia coli
Experimental: The MIC of the LNT113 or antibiotic was determined using modification of the broth microdilution method in a 96-well, round bottom, microplate according to the previously described method (Heselpoth et al., 2019). Exponentially grown cells were diluted to a concentration of 10^6 CFU/ml in a CAA medium, and then cultured with recombinant LNT113 (1-64 μg/ml) or antibiotics at 35° C. for 20 hours. […] The MBC was defined as the lowest concentration of the antibacterial agent with no growth on a plate. All analyses were performed in duplicate.

K. pneumoniae = test: Antibacterial activity analysis (colony count after 2 hours in buffer); format: cell-based, Klebsiella pneumoniae; conditions: 2 μM
Experimental: The antibacterial activity of the purified protein was tested for E. coli and various K. pneumoniae strains. The bacterium were grown to an exponential phase (OD600=0.5) and harvested by centrifugation at 12,000×g for 3 minutes. Then, the pellets were washed with reaction buffer solution (20 mM Tris-HCl, pH 7.5) and diluted to about 10^6 cells/ml in the buffer solution. Then, 100 μl bacterial suspension was mixed with the purified endolysin of 100 μl in the reaction buffer solution and incubated at 37° C. for 2 hours. Finally, the mixture was diluted with PBS and loaded on an LB plate. After culturing at 37° C. overnight, the bacterial colonies were counted. All the analysis was performed in triplicate.
The same reaction was performed for the selected subject bacterium in 20 mM HEPES-NaOH, 150 mM NaCl [pH 7.4], and the unique antibacterial activity of Tris and dependence of endolysin for turgor pressure were excluded (FIG. 10a and FIG. 10b). […] The bacterial cells grown geometrically were cultured with 2 μM endolysin in low tonicity buffers (20 mM Tris-HCl, pH 7.5 or 20 mM HEPES, pH 7.5) or high tonicity buffers (buffer solution comprising 150 mM NaCl) at 37° C. for 2 hours. The cells treated with storage buffer solution (20 mM Tris-HCl, pH 7.5, 150 mM NaCl buffer solution (pH 7.5)) were used as a negative control group. The dotted line represents the detection limit (1 Log CFU/ml).

E. coli ATCC 8739 = test: 1-N-phenylnaphthylamine (NPN) absorption analysis, outer membrane permeability; format: cell-based, Escherichia coli; conditions: 2 μM
Experimental: NPN absorption analysis was performed by the previously described method (Helander and Mattila-Sandholm, 2000). In other words, E. coli ATCC 8739 grown to an exponential phase (OD600=0.4) was washed and resuspended with buffer solution (5 mM HEPES, pH 7.2) to about 10^8 cells/ml. 40 μM NPN (Sigma-Aldrich) 50 μl was mixed with the purified endolysin or Cecropin A (AbClon, Korea) 50 μl so that the final concentration was 2 μM in a 96-well black plate. Outer membrane permeation agents, 1 mM EDTA (Duchefa) and 2 μM Polymyxin B (Sigma-Aldrich) were used as a positive control group. Then, cell suspension 100 μl was added to each well, and cultured at 37° C. for 5 minutes. Buffer alone, buffer+NPN, cell suspension+buffer and cell suspension+buffer+NPN were used as a negative control group. Fluorescence was measured at excitation (350 nm) and emission (420 nm) using a microplate reader (SpectraMax iD3, Molecular Devices, USA). An NPN absorption factor was calculated by dividing the fluorescence value after background removal (the value that the value without NPN subtracted from the fluorescence value of the cell mixture with the sample) with the fluorescence value of the cell suspension with buffer subtracted from the fluorescence value of buffer without NPN.

B1: LNT113: fusion polypeptide: Cecropin A, (GGGGS)3 linker, mutant endolysin mtEC340; recombinant form with C-terminal His tag (protein)
chain: MKWKLFKKIEKVGQNIRDGIIKAGPAVAVVGQATQIAKGGGGSGGGGSGGGGSVSRNISNNGIKFTAAFEGFRGTAYRATPNEKYLTIGYGSYGPHVEPGKTITPGQGLLLLNRDMAKAVAAVDAVAHHSLTQSQFDAVCDLVYNAGAGVIAAATGTGKALRSGDVATLRAKLALFINQNGKPLLGLRRRTAGRLALFDGKPWQEAEAIGRAVKG
modifications: synthetic_Met+Cecropin A+GGGGS3 linker+mtEC340
notes: fusion polypeptide: Cecropin A, (GGGGS)3 linker, mutant endolysin mtEC340; recombinant form with C-terminal His tag
B1 gave an MBC (E. coli; E. coli ATCC 8739) of 8 µg/mL, an MIC (E. coli; E. coli ATCC 8739) of 8 µg/mL and an MBC (E. coli; E. coli ATCC 25922) of 64 µg/mL. It also gave an MIC (E. coli; E. coli ATCC 25922) of 64 µg/mL, an MBC (E. coli; E. coli ATCC 51739) of 8 µg/mL and an MIC (E. coli; E. coli ATCC 51739) of 8 µg/mL. It also gave an MBC (E. coli; E. coli CCARM 1A746) of 4 µg/mL, an MIC (E. coli; E. coli CCARM 1A746) of 4 µg/mL and an MBC (E. coli; E. coli CCARM 1G490) of 16 µg/mL. The MIC (E. coli; E. coli CCARM 1G490) was 16 µg/mL, the MBC (E. coli; E. coli ECOR 1) was 8 µg/mL and the MIC (E. coli; E. coli ECOR 1) was 8 µg/mL. It also gave an MBC (E. coli; E. coli ECOR 2) of 8 µg/mL, an MIC (E. coli; E. coli ECOR 2) of 8 µg/mL and an MBC (E. coli; E. coli ECOR 9) of 4 µg/mL. For the same molecule, the MIC (E. coli; E. coli ECOR 9) was 4 µg/mL, the MBC (E. coli; E. coli ECOR 15) was 32 µg/mL and the MIC (E. coli; E. coli ECOR 15) was 32 µg/mL. The MBC (E. coli; E. coli ECOR 35) was 16 µg/mL, the MIC (E. coli; E. coli ECOR 35) was 16 µg/mL and the MBC (E. coli; E. coli ECOR 36) was >64 µg/mL. For the same molecule, the MIC (E. coli; E. coli ECOR 36) was >64 µg/mL, the MBC (E. coli; E. coli ECOR 43) was 16 µg/mL and the MIC (E. coli; E. coli ECOR 43) was 16 µg/mL. For the same molecule, the MBC (E. coli; E. coli ECOR 45) was 4 µg/mL, the MIC (E. coli; E. coli ECOR 45) was 4 µg/mL and the MBC (E. coli; E. coli ECOR 52) was >64 µg/mL. The MIC (E. coli; E. coli ECOR 52) was 64 µg/mL, the MBC (E. coli; E. coli ECOR 69) was >64 µg/mL and the MIC (E. coli; E. coli ECOR 69) was >64 µg/mL. The MBC (E. coli; E. coli F485) was 4 µg/mL, the MIC (E. coli; E. coli F485) was 4 µg/mL and the MBC (E. coli; E. coli F524) was 8 µg/mL. It also gave an MIC (E. coli; E. coli F524) of 8 µg/mL, an MBC (E. coli; E. coli F576) of 4 µg/mL and an MIC (E. coli; E. coli F576) of 4 µg/mL. For the same molecule, the MBC (E. coli; E. coli F716) was >64 µg/mL, the MIC (E. coli; E. coli F716) was >64 µg/mL and the MBC (E. coli; E. coli F852) was 16 µg/mL. For the same molecule, the MIC (E. coli; E. coli F852) was 8 µg/mL, the MBC (E. coli; E. coli FORC81) was 8 µg/mL and the MIC (E. coli; E. coli FORC81) was 8 µg/mL. It also gave an MBC (E. coli; E. coli UPEC 90) of 64 µg/mL, an MIC (E. coli; E. coli UPEC 90) of 64 µg/mL and an MBC (E. coli; E. coli UPEC 3038) of 16 µg/mL. It also gave an MIC (E. coli; E. coli UPEC 3038) of 16 µg/mL, an MBC (E. coli; E. coli UPEC 3042) of 16 µg/mL and an MIC (E. coli; E. coli UPEC 3042) of 16 µg/mL. The MBC (E. coli; E. coli UPEC 3051) was 16 µg/mL, the MIC (E. coli; E. coli UPEC 3051) was 16 µg/mL and the MBC (E. coli; E. coli UPEC 3150) was 8 µg/mL. For the same molecule, the MIC (E. coli; E. coli UPEC 3150) was 8 µg/mL, the MBC (E. coli; E. coli UPEC 3151) was 64 µg/mL and the MIC (E. coli; E. coli UPEC 3151) was 64 µg/mL. The MBC (E. coli; E. coli UPEC 3163) was 16 µg/mL, the MIC (E. coli; E. coli UPEC 3163) was 16 µg/mL and the MBC (E. coli; E. coli UPEC 3164) was 32 µg/mL. It also gave an MIC (E. coli; E. coli UPEC 3164) of 32 µg/mL, an MBC (E. coli; E. coli UPEC 3168) of 8 µg/mL and an MIC (E. coli; E. coli UPEC 3168) of 8 µg/mL. For the same molecule, the MBC (E. coli; E. coli UPEC 3181) was 8 µg/mL, the MIC (E. coli; E. coli UPEC 3181) was 8 µg/mL and the “MBC compared with MIC” value (E. coli; various E. coli strains) was “same as MIC”. The “MIC in most of the strains” value (E. coli; various E. coli strains of Table 2) was 4 to 64 µg/mL, the “antibacterial activity (number of bacterium)” value (K. pneumoniae; K. pneumoniae ATCC700603, KCTC2208, CCARM10143, F85, 2 hours, Tris-HCl pH 7.5) was “more excellent antibacterial activity” and the “effect of adding NaCl on antibacterial activity” value (K. pneumoniae; K. pneumoniae KCTC 2208, Tris or Hepes buffer with 150 mM NaCl) was “negative effect of salt presence was significantly reduced”. For the same molecule, the “increase in activity compared to mtEC340” value (K. pneumoniae; K. pneumoniae strains, 2 hours) was ≤ 4 log, the “viable bacterial cells after culturing for 2 hours” value (K. pneumoniae; all tested K. pneumoniae strains) was “No viable bacterial cells were detected” and the “increase of membrane penetration (NPN)” value (E. coli ATCC 8739) was 1.8 times. The “membrane penetration relative to cecropin A alone (NPN)” value (E. coli ATCC 8739) was 1.3 fold.
